Assays:
[1] = target: DENV2 sE FGA02 A259C, disulfide-linked dimer (Dengue virus serotype 2, strain FGA02); test: SEC-MALS; sE alone, ~150 ug on Superdex 200 10/300 GL, Tris 50 mM, NaCl 500 mM (pH 8.0), 0.4 ml min^−1
[2] = target: DENV2 sE FGA02 L107C/A313C, disulfide-linked dimer (Dengue virus serotype 2, strain FGA02); test: SEC

Substance | stoichiometry N [1] | stoichiometry N [2]
DENV2 sE FGA02 A259C, disulfide-linked dimer (domain or fragment) | 2 | –
DENV2 sE FGA02 L107C/A313C, disulfide-linked dimer (domain or fragment) | – | 2
